These results are taken from patent US20250382363A1 (NUMAB THERAPEUTICS, published 2025).

For orientation: Kd means the constant that tells how readily two partners part at equilibrium. High values mean weaker binding, low ones tighter binding.

B1: PRO2932 (scFv 54-21-H03-sc01_(L144A, S148N)) (scFv)
scFv: DIQMTQSPSSLSASVGDRVTITCQASESIYSSLAWYQQKPGKAPKLLIYLASTLASGVPSRFSGSGSGTDFTLTISSLQPEDFATYYCQSTDYTTSTHRNSFGTGTKVTVLGGGGGSGGGGSGGGGSGGGGSEVQLVESGGGLVQPGGSLRLSCAASGFSFSTTYYMCWVRQAPGKGLEWIGCTNTASSVRTYYATWAKGRFTISRDNSKNTVYLQMNSLRAEDTAVYYCARDMGFADYALNLWGQGTAVTVNS
notes: PRO1922 variant; VH substitutions, AHo numbering; also called PRO1922 L144A-S148N
B2: PRO2944 (scFv 54-21-H03-sc01_(T146Q)) (scFv)
scFv: B1 scFv with A249L, T251Q, N253S
notes: PRO1922 variant; VH substitution, AHo numbering; also called PRO1922 T146Q
B3: PRO3319 (scFv 54-21-H03-sc01_(L12A, T101S, L144A, T146R)) (scFv)
scFv: B1 scFv with L143A, T225S, T251R, N253S
notes: PRO1922 variant; VH substitutions, AHo numbering; also called PRO1922 L12A-T101S-L144A-T146R
B4: PRO2943 (scFv 54-21-H03-sc01_(T146E)) (scFv)
scFv: B1 scFv with A249L, T251E, N253S
notes: PRO1922 variant; VH substitution, AHo numbering; also called PRO1922 T146E
B5: PRO2990 (scFv 54-21-H03-sc01_(L12S, V103T, L144T)) (scFv)
scFv: B1 scFv with L143S, V227T, A249T, N253S
notes: VH substitutions, AHo numbering; also called PRO1922-L12S-V103T-L144T
B6: PRO3322 (scFv 54-21-H03-sc01_(L12R, T101R, L144A, T146Q)) (scFv)
scFv: B1 scFv with L143R, T225R, T251Q, N253S
notes: PRO1922 variant; VH substitutions, AHo numbering; also called PRO1922 L12R-T101R-L144A-T146Q
B7: PRO2994 (scFv 54-21-H03-sc01_(P48A)) (scFv)
scFv: B1 scFv with P174A, A249L, N253S
notes: PRO1922 variant; VH substitution, AHo numbering; also called PRO1922 P48A
B8: PRO2945 (scFv 54-21-H03-sc01_(T101R)) (scFv)
scFv: B1 scFv with T225R, A249L, N253S
notes: PRO1922 variant; VH substitution, AHo numbering; also called PRO1922 T101R
B9: PRO2937 (scFv 54-21-H03-sc01_(T101S, L144A, T146Q)) (scFv)
scFv: B1 scFv with T225S, T251Q, N253S
notes: PRO1922 variant; VH substitutions, AHo numbering; also called PRO1922 T101S-L144A-T146Q
B10: PRO2938 (scFv 54-21-H03-sc01_(L12A, T101S, L144A, T146Q)) (scFv)
scFv: B1 scFv with L143A, T225S, T251Q, N253S
notes: PRO1922 variant; VH substitutions, AHo numbering; also called PRO1922 L12A-T101S-L144A-T146Q
B11: PRO2946 (scFv 54-21-H03-sc01_(T101S)) (scFv)
scFv: B1 scFv with T225S, A249L, N253S
notes: PRO1922 variant; VH substitution, AHo numbering; also called PRO1922 T101S
B12: PRO3320 (scFv 54-21-H03-sc01_(L12A, T101S, L144K, T146Q)) (scFv)
scFv: B1 scFv with L143A, T225S, A249K, T251Q, N253S
notes: PRO1922 variant; VH substitutions, AHo numbering; also called PRO1922 L12A-T101S-L144K-T146Q
B13: PRO3321 (scFv 54-21-H03-sc01_(L12R, T101S, L144A, T146Q)) (scFv)
scFv: B1 scFv with L143R, T225S, T251Q, N253S
notes: PRO1922 variant; VH substitutions, AHo numbering; also called PRO1922 L12R-T101S-L144A-T146Q
B14: PRO2941 (scFv 54-21-H03-sc01_(T146K)) (scFv)
scFv: B1 scFv with A249L, T251K, N253S
notes: PRO1922 variant; VH substitution, AHo numbering; also called PRO1922 T146K
B15: PRO2942 (scFv 54-21-H03-sc01_(T146R)) (scFv)
scFv: B1 scFv with A249L, T251R, N253S
notes: PRO1922 variant; VH substitution, AHo numbering; also called PRO1922 T146R
B16: PRO3318 (scFv 54-21-H03-sc01_(L12A, T101R, L144A, T146Q)) (scFv)
scFv: B1 scFv with L143A, T225R, T251Q, N253S
notes: PRO1922 variant; VH substitutions, AHo numbering; also called PRO1922 L12A-T101R-L144A-T146Q
B17: PRO2992 (scFv 54-21-H03-sc01_(T146A)) (scFv)
scFv: B1 scFv with A249L, T251A, N253S
notes: PRO1922 variant; VH substitution, AHo numbering; also called PRO1922 T146A
B18: PRO2936 (scFv 54-21-H03-sc01_(T101S, T146Q)) (scFv)
scFv: B1 scFv with T225S, A249L, T251Q, N253S
notes: PRO1922 variant; VH substitutions, AHo numbering; also called PRO1922 T101S-T146Q
B19: PRO2991 (scFv 54-21-H03-sc01_(T101A)) (scFv)
scFv: B1 scFv with T225A, A249L, N253S
notes: PRO1922 variant; VH substitution, AHo numbering; also called PRO1922 T101A
B20: PRO2993 (scFv 54-21-H03-sc01_(P15A)) (scFv)
scFv: B1 scFv with P146A, A249L, N253S
notes: PRO1922 variant; VH substitution, AHo numbering; also called PRO1922 P15A

Residue numbers refer to the chain shown, from its start. In names and notes the source's numbering stands.

For the first experiment, the target named is T1, human a-Mesothelin (Acro Biosystems; MSN_H5223) (human, UniProt Q13421 296-580, limits assumed).
T1 construct: Bought protein immobilised on the SPR chip; Printed as 'a-Mesothelin' but used as the antigen for the anti-MSLN scFvs; also called Human MSLN; MSLN
T1 sequence (Q13421 other isoform, or with tags, fused parts or gaps limits assumed): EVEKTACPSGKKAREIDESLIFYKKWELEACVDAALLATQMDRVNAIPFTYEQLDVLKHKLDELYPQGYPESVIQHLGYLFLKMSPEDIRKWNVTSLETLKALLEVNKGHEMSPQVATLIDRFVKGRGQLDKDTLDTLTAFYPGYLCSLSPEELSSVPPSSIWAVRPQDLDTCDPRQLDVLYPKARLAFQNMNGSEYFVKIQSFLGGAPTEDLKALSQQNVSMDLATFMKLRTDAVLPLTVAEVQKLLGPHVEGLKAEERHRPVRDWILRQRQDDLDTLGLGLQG
The experiment can be described thus: SPR, mesothelin immobilised, scFv analyte, 1:1 fit. As for the experimental part:
The mutation variants were then injected at concentrations of 10 nM, 2 nM and 0.4 nM over the ligand-immobilized and reference spots. The wild type variants were used as a control, while an empty spot was used as reference.
After each cycle with analyte, the surface was regenerated with a 3M MgCl₂ solution, thereby allowing the next analyte cycle to have only free ligand available. Binding affinity KD was globally calculated by the Bruker SPR software based on the binding association (kₒₙ) and dissociation (Koff) rate, by fitting a 1:1 Langmuir model to the curves obtained by the cycles with the three different concentrations of the analyte.
Background: Surface plasmon resonance follows binding to a sensor surface in real time, without labels.
Take B1: binding was characterised by a dissociation constant (Kd) of 2.1 nM and the n-fold to wt was determined as 1.2 fold.

For B2, the Kd stood at 1.8 nM and the n-fold to wt was found to be 1 fold.

With B3, the Kd is 2.5 nM and the n-fold to wt is 1.4 fold.

Consider B4, for which the dissociation constant (Kd) worked out at 3.3 nM and the n-fold to wt is 1.8 fold.

In the case of B5, the affinity, expressed as Kd, was 1.5 nM and the n-fold to wt is 0.8 fold.

For B6, binding was put at a Kd of 2.1 nM and the n-fold to wt was found to be 1.2 fold.

On to B7, for which the Kd came to 1.5 nM and the n-fold to wt amounted to 0.8 fold.

Consider B8, for which binding was put at a Kd of 3 nM and the n-fold to wt was 1.7 fold.

As to B9, the affinity, expressed as Kd, was 1.9 nM and the n-fold to wt was determined as 1.1 fold.

Regarding B10, binding was put at a Kd of 1.6 nM and the n-fold to wt was 0.9 fold.

For the molecule B11, the Kd is 3.2 nM and the n-fold to wt is 1.8 fold.

With B12, the equilibrium dissociation constant (Kd) was determined as 1.6 nM and the n-fold to wt was determined as 0.9 fold.

Turning to B13, binding was characterised by a dissociation constant (Kd) of 1.7 nM and the n-fold to wt turned out to be 0.9 fold.

On to B14, for which binding was characterised by a dissociation constant (Kd) of 1.9 nM and the n-fold to wt worked out at 1.1 fold.

For B15, binding was put at a Kd of 1.3 nM and the n-fold to wt was 0.7 fold.

As for B16, the Kd turned out to be 2.3 nM and the n-fold to wt came out at 1.3 fold.

Take B17: the equilibrium dissociation constant (Kd) was 1.7 nM and the n-fold to wt is 0.9 fold.

As for B18, the Kd turned out to be 0.66 nM and the n-fold to wt worked out at 0.4 fold.

Consider B19, for which binding was characterised by a dissociation constant (Kd) of 2.9 nM and the n-fold to wt was found to be 1.6 fold.

B20: binding was characterised by a dissociation constant (Kd) of 0.82 nM and the n-fold to wt was 0.5 fold.

The target in the next experiment is pre-existing anti-drug antibodies (ADA) present in human sera. The experiment can be described thus: pre-existing ADA ELISA, scFv coated, human sera unspiked vs spiked.
Molecule B1 yielded a Mean No of serum samples >30% inhibition (30% CCP) with SCP (serum samples) of 1 and a No of serum samples >30% inhibition (30% CCP) without SCP (serum samples) of 5.

As to B2, the Mean No of serum samples >30% inhibition (30% CCP) with SCP (serum samples) is 3 and the No of serum samples >30% inhibition (30% CCP) without SCP (serum samples) is 3.

In turn, B3 returned a Mean No of serum samples >30% inhibition (30% CCP) with SCP (serum samples) of 0 and a No of serum samples >30% inhibition (30% CCP) without SCP (serum samples) of 0.

Molecule B4 gave a Mean No of serum samples >30% inhibition (30% CCP) with SCP (serum samples) of 2 and a No of serum samples >30% inhibition (30% CCP) without SCP (serum samples) of 4.

Molecule B5 gave a Mean No of serum samples >30% inhibition (30% CCP) with SCP (serum samples) of 4 and a No of serum samples >30% inhibition (30% CCP) without SCP (serum samples) of 5.

B6 showed a Mean No of serum samples >30% inhibition (30% CCP) with SCP (serum samples) of 0 and a No of serum samples >30% inhibition (30% CCP) without SCP (serum samples) of 0.

The molecule B7 showed a Mean No of serum samples >30% inhibition (30% CCP) with SCP (serum samples) of 2 and a No of serum samples >30% inhibition (30% CCP) without SCP (serum samples) of 6.

On to B8, for which the Mean No of serum samples >30% inhibition (30% CCP) with SCP (serum samples) turned out to be 0 and the No of serum samples >30% inhibition (30% CCP) without SCP (serum samples) worked out at 0.

B9 returned a Mean No of serum samples >30% inhibition (30% CCP) with SCP (serum samples) of 0 and a No of serum samples >30% inhibition (30% CCP) without SCP (serum samples) of 5.

The molecule B10 registered a Mean No of serum samples >30% inhibition (30% CCP) with SCP (serum samples) of 0 and a No of serum samples >30% inhibition (30% CCP) without SCP (serum samples) of 0.

The molecule B11 yielded a Mean No of serum samples >30% inhibition (30% CCP) with SCP (serum samples) of 6 and a No of serum samples >30% inhibition (30% CCP) without SCP (serum samples) of 9.

On to B12, for which the Mean No of serum samples >30% inhibition (30% CCP) with SCP (serum samples) came out at 0 and the No of serum samples >30% inhibition (30% CCP) without SCP (serum samples) is 0.

B13 yielded a Mean No of serum samples >30% inhibition (30% CCP) with SCP (serum samples) of 0 and a No of serum samples >30% inhibition (30% CCP) without SCP (serum samples) of 0.

Molecule B14 had a Mean No of serum samples >30% inhibition (30% CCP) with SCP (serum samples) of 0 and a No of serum samples >30% inhibition (30% CCP) without SCP (serum samples) of 0.

For B15, the Mean No of serum samples >30% inhibition (30% CCP) with SCP (serum samples) was found to be 1 and the No of serum samples >30% inhibition (30% CCP) without SCP (serum samples) was determined as 6.

As to B16, the Mean No of serum samples >30% inhibition (30% CCP) with SCP (serum samples) was found to be 0 and the No of serum samples >30% inhibition (30% CCP) without SCP (serum samples) was 0.

B17 displayed a Mean No of serum samples >30% inhibition (30% CCP) with SCP (serum samples) of 3 and a No of serum samples >30% inhibition (30% CCP) without SCP (serum samples) of 4.

B18 yielded a Mean No of serum samples >30% inhibition (30% CCP) with SCP (serum samples) of 1 and a No of serum samples >30% inhibition (30% CCP) without SCP (serum samples) of 4.

B19 registered a Mean No of serum samples >30% inhibition (30% CCP) with SCP (serum samples) of 0 and a No of serum samples >30% inhibition (30% CCP) without SCP (serum samples) of 0.

The molecule B20 came in with a Mean No of serum samples >30% inhibition (30% CCP) with SCP (serum samples) of 2 and a No of serum samples >30% inhibition (30% CCP) without SCP (serum samples) of 3.
